Measurements published in patent CN117999282A.

How the values were obtained:
[1] = target: cynomolgus Vδ1 antigen DV1/GV77, recombinant heterodimer (食蟹猴 (cynomolgus)); assay: SPR (Reichert 4SPR), antibody on protein A chip
[2] = target: L1 (DV1-GV4), soluble human Vδ1Vγ4 γδTCR heterodimer, leucine zipper (LZ) format (human); assay: SPR (Reichert 4SPR), antibody on protein A chip
Chain of L1 (DV1-GV4), soluble human Vδ1Vγ4 γδTCR heterodimer, leucine zipper (LZ) format (human) (main, as listed by the source): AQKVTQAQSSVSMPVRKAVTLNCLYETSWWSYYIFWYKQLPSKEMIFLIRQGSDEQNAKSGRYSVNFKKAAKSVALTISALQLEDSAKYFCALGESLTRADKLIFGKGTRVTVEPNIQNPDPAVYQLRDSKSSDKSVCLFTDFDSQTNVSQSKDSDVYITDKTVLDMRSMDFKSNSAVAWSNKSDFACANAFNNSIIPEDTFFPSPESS

Chain of cynomolgus Vδ1 antigen DV1/GV77, recombinant heterodimer (食蟹猴 (cynomolgus)) (main, as listed by the source): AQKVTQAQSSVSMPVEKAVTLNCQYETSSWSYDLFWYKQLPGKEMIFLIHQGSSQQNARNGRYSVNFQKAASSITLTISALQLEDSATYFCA

Binder	fold increase of affinity against ADT1-4 [1]	fold decrease of affinity against ADT1-4-2 [2]	fold decrease of affinity against ADT1-4-2 [1]
ADT1-4(S74L) (antibody, V domains shown) VH: QVQLQQSGPGLVKPSQTLSLTCAISGDSVSSKSAAWNWIRQSPSRGLEWLGRTYYRSKWSTDYAASVKSRITINPDTSKNQLSLQLNSVTPEDTAVYYCARTWSGYVDVWGQGTLVTVSS VL: DIQMTQSPPALSASVGDRVTITCRASQDINDWLAWYQHKPGKAPKLLIYDASSLESGVPLRFSGSGSGTEFTLTISSLQPDDFATYYCQQSYSTPQVTFGQGTRLEIKR	5 fold		
ADT1-4-2(L74S) (antibody, part only; not given: mutant kappa chain, V domains shown, part only) VH: EVQLQQSGPGLVKPSQTLSLTCAISGDSVSSKSAAWNWIRQSPSRGLEWLGRTYYRSKWSTDYAASVKSRITINPDTSKNQLSLQLNSVTPEDTAVYYCARTWVGYVDRWGQGTLVTVSS		11 fold	23 fold
